Laboratory results reported in patent publication US20230258640.

Target: T1, TCPP-labelled peptide cleavage sequence for MMP-1 (GAGVPMS-MRGGAG) tethered to carboxygraphene-polyethylenimine
T1 chain: GAGVPMSMRGGAG

B1: Matrix-Metalloproteinase-1 (protein)
chain: FVLTEGNPRWEQTHLTYRIENYTPDLPRADVDHAIEKAFQLWSNVTPLTFTKVSEGQADIMISFVRGDHRDNSPFDGPGGNLAHAFQPGPGIGGDAHFDEDERWTNNFREYNLHRVAAHELGHSLGLSHSTDIGALMYPSYTFSGDVQLAQDDIDGIQAIYGRSQNPVQPIGPQTPKACDSKLTFDAITTIRGEVMFFKDRFYMRTNPFYPEVELNFISVFWPQLPNGLEAAYEFADRDEVRFFKGNKYWAVQGQNVLHGYPKDIYSSFGFPRTVKHIDAALSEENTGKTYFFVANKYWRYDEYKRSMDPGYPKMIAHDFPGIGHKVDAVFMKDGFFYFFHGTRQYKFDPKTKRILTLQKANSWFNCRKN
B1 was tested, and the “estimated limit of detection (LOD)” value was “femtomolar protease activities can be detected” and the “fluorescence signal of released TCPP after 60 min incubation at 37 C” value was “the intensity of the detected signal is proportional to concentration of enzyme”.
